Experiment [1] deals with Human FcRn (α-chain and β2m) on stably transfected MDCK cells (human) (UniProt P55899). Description: flow cytometry on cells. A general note: Flow cytometry measures light scatter and fluorescence of single cells or particles in a stream.
Experiment [2] shares this target. Put plainly: flow cytometry on cells. The source holds these as a separate data set.
In experiment [3] the target is Rozanolixizumab (1519.g57 IgG4P). Put plainly: SPR. A general note: Surface plasmon resonance follows binding to a sensor surface in real time, without labels.
Experiment [4] shares this target. Description: SPR. This is another data set of the same source.
Experiment [5] addresses Cynomolgus monkey FcRn (α-chain and β2m) on stably transfected MDCK cells (cynomolgus monkey) (UniProt Q8SPV9). Put plainly: flow cytometry on cells.
For experiment [6], the target named is Rozanolixizumab (1519.g57 IgG4P). Description: SPR. The source holds these as a separate data set.

Where two headings read alike, the source gives them in different places.

UniProt Q8SPV9, sequence (Q8SPV9 24-365, chain 1 of 2): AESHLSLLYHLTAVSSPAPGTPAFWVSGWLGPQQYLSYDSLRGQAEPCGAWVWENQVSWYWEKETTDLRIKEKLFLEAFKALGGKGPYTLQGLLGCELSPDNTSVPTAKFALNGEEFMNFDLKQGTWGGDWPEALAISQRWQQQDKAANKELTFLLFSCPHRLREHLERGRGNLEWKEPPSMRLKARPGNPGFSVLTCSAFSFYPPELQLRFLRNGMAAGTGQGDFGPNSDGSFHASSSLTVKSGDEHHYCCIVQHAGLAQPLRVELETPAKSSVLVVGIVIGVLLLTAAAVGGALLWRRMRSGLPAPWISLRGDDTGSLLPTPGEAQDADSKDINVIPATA
UniProt Q8SPV9, sequence (Q8SPW0 21-119, chain 2 of 2, further chain): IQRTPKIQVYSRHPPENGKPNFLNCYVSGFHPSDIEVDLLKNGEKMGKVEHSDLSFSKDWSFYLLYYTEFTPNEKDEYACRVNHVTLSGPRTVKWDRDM

Consider 1519.g57 Fab’, for which the Kd (usually a measure of binding affinity in units of concentration) worked out at 0.44 nM in experiment [1] and 0.42 nM in experiment [2].

As for “Human FcRn extracellular domain (α-chain with β2-microglobulin) (from UniProt P55899 24-297; P61769 21-119) (complex)”, the Kd was below 0.023 nM in experiment [3] and 0.034 nM in experiment [4].

As to “Rozanolixizumab (1519.g57 IgG4P) (antibody)”, the dissociation constant Kd was found to be 0.37 nM in experiment [1], 1 nM in experiment [5] and 0.43 nM in experiment [2].

B1: Rat FcRn extracellular domain (α-chain with β2-microglobulin) (complex)
chain 1: AEPRLPLMYHLAAVSDLSTGLPSFWATGWLGAQQYLTYNNLRQEADPCGAWIWENQVSWYWEKETTDLKSKEQLFLEAIRTLENQINGTFTLQGLLGCELAPDNSSLPTAVFALNGEEFMRFNPRTGNWSGEWPETDIVGNLWMKQPEAARKESEFLLTSCPERLLGHLERGRQNLEWKEPPSMRLKARPGNSGSSVLTCAAFSFYPPELKFRFLRNGLASGSGNCSTGPNGDGSFHAWSLLEVKRGDEHHYQCQVEHEGLAQPLTVDLDSPARSS
chain 2: IQKTPQIQVYSRHPPENGKPNFLNCYVSQFHPPQIEIELLKNGKKIPNIEMSDLSFSKDWSFYILAHTEFTPTETDVYACRVKHVTLKEPKTVTWDRDM
B1 had an equilibrium dissociation constant (Kd) in experiment [6] of 99 nM.

Source of the values: article PMC6291300.
